Reference: patent US20180009871A1 (INTARCIA THERAPEUTICS, published 2018)
Where no end group is shown, it is not given here. [ ]: non-standard residue; d: D form. Aib = CC(C)(N)C(=O)O

Columns and labels:
[1] = biological target: human glucagon receptor (GCGR) (human, UniProt P47871 26-477); test: cell-based or functional assay
[2] = biological target: human GLP-1 receptor (GLP-1R) (human, UniProt P43220 24-463); test: cell-based or functional assay
Sequence of human GLP-1 receptor (GLP-1R) (P43220 24-463): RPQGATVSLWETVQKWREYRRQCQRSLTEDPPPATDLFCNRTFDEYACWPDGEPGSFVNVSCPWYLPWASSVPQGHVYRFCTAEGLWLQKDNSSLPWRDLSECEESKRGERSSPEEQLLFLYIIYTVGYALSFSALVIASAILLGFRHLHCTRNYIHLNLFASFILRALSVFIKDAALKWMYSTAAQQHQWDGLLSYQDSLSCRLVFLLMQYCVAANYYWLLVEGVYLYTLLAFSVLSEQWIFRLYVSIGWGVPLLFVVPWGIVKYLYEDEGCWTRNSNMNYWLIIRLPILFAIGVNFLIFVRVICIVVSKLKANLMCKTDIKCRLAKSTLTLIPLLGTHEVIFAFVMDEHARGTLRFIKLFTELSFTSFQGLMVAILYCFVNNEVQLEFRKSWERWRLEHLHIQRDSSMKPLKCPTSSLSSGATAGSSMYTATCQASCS

B1: Compound A20 (peptide)
peptide: YSHGTFTSDYSKYLD[Aib]KRAQEFV[Aib]WLEDEPSSGKPPPS-OH
modifications: N-terminus assumed
SMILES: CC(C)C[C@H](NC(=O)[C@H](Cc1ccc(O)cc1)NC(=O)[C@H](CCCCN)NC(=O)[C@H](CO)NC(=O)[C@H](Cc1ccc(O)cc1)NC(=O)[C@H](CC(=O)O)NC(=O)[C@H](CO)NC(=O)[C@@H](NC(=O)[C@H](Cc1ccccc1)NC(=O)[C@@H](NC(=O)CNC(=O)[C@H](Cc1c[nH]cn1)NC(=O)[C@H](CO)NC(=O)[C@@H](N)Cc1ccc(O)cc1)[C@@H](C)O)[C@@H](C)O)C(=O)N[C@@H](CC(=O)O)C(=O)NC(C)(C)C(=O)N[C@@H](CCCCN)C(=O)N[C@@H](CCCNC(=N)N)C(=O)N[C@@H](C)C(=O)N[C@@H](CCC(N)=O)C(=O)N[C@@H](CCC(=O)O)C(=O)N[C@@H](Cc1ccccc1)C(=O)N[C@H](C(=O)NC(C)(C)C(=O)N[C@@H](Cc1c[nH]c2ccccc12)C(=O)N[C@@H](CC(C)C)C(=O)N[C@@H](CCC(=O)O)C(=O)N[C@@H](CC(=O)O)C(=O)N[C@@H](CCC(=O)O)C(=O)N1CCC[C@H]1C(=O)N[C@@H](CO)C(=O)N[C@@H](CO)C(=O)NCC(=O)N[C@@H](CCCCN)C(=O)N1CCC[C@H]1C(=O)N1CCC[C@H]1C(=O)N1CCC[C@H]1C(=O)N[C@@H](CO)C(=O)O)C(C)C
For B1, which “hGCGR pEC50 (cAMP)” value [1] is on record?
Its value is 13.3 pEC50.

And the “hGLP1 pEC50 (cAMP)” value [2]?
Its value is less than 9 pEC50.

B2: Compound A22 (peptide)
peptide: YSHGTFTSDYSKYLD[Aib]KRAQEFV[Aib]WLEDEPSSGSPPPS-OH
modifications: N-terminus assumed
SMILES: CC(C)C[C@H](NC(=O)[C@H](Cc1ccc(O)cc1)NC(=O)[C@H](CCCCN)NC(=O)[C@H](CO)NC(=O)[C@H](Cc1ccc(O)cc1)NC(=O)[C@H](CC(=O)O)NC(=O)[C@H](CO)NC(=O)[C@@H](NC(=O)[C@H](Cc1ccccc1)NC(=O)[C@@H](NC(=O)CNC(=O)[C@H](Cc1c[nH]cn1)NC(=O)[C@H](CO)NC(=O)[C@@H](N)Cc1ccc(O)cc1)[C@@H](C)O)[C@@H](C)O)C(=O)N[C@@H](CC(=O)O)C(=O)NC(C)(C)C(=O)N[C@@H](CCCCN)C(=O)N[C@@H](CCCNC(=N)N)C(=O)N[C@@H](C)C(=O)N[C@@H](CCC(N)=O)C(=O)N[C@@H](CCC(=O)O)C(=O)N[C@@H](Cc1ccccc1)C(=O)N[C@H](C(=O)NC(C)(C)C(=O)N[C@@H](Cc1c[nH]c2ccccc12)C(=O)N[C@@H](CC(C)C)C(=O)N[C@@H](CCC(=O)O)C(=O)N[C@@H](CC(=O)O)C(=O)N[C@@H](CCC(=O)O)C(=O)N1CCC[C@H]1C(=O)N[C@@H](CO)C(=O)N[C@@H](CO)C(=O)NCC(=O)N[C@@H](CO)C(=O)N1CCC[C@H]1C(=O)N1CCC[C@H]1C(=O)N1CCC[C@H]1C(=O)N[C@@H](CO)C(=O)O)C(C)C
What does the source list for B2?
hGCGR pEC50 (cAMP) [1]: 11 pEC50; hGLP1 pEC50 (cAMP) [2]: < 9 pEC50

B3: Compound A21 (peptide)
peptide: YSHGTFTSDYSKYLD[Aib]KRAQEFV[Aib]WLEDEPSSGEPPPS-OH
modifications: N-terminus assumed
SMILES: CC(C)C[C@H](NC(=O)[C@H](Cc1ccc(O)cc1)NC(=O)[C@H](CCCCN)NC(=O)[C@H](CO)NC(=O)[C@H](Cc1ccc(O)cc1)NC(=O)[C@H](CC(=O)O)NC(=O)[C@H](CO)NC(=O)[C@@H](NC(=O)[C@H](Cc1ccccc1)NC(=O)[C@@H](NC(=O)CNC(=O)[C@H](Cc1c[nH]cn1)NC(=O)[C@H](CO)NC(=O)[C@@H](N)Cc1ccc(O)cc1)[C@@H](C)O)[C@@H](C)O)C(=O)N[C@@H](CC(=O)O)C(=O)NC(C)(C)C(=O)N[C@@H](CCCCN)C(=O)N[C@@H](CCCNC(=N)N)C(=O)N[C@@H](C)C(=O)N[C@@H](CCC(N)=O)C(=O)N[C@@H](CCC(=O)O)C(=O)N[C@@H](Cc1ccccc1)C(=O)N[C@H](C(=O)NC(C)(C)C(=O)N[C@@H](Cc1c[nH]c2ccccc12)C(=O)N[C@@H](CC(C)C)C(=O)N[C@@H](CCC(=O)O)C(=O)N[C@@H](CC(=O)O)C(=O)N[C@@H](CCC(=O)O)C(=O)N1CCC[C@H]1C(=O)N[C@@H](CO)C(=O)N[C@@H](CO)C(=O)NCC(=O)N[C@@H](CCC(=O)O)C(=O)N1CCC[C@H]1C(=O)N1CCC[C@H]1C(=O)N1CCC[C@H]1C(=O)N[C@@H](CO)C(=O)O)C(C)C
With B3 as the binder, how does the “hGCGR pEC50 (cAMP)” value [1] read?
Its value is 11.1 pEC50.

And the “hGLP1 pEC50 (cAMP)” value [2]?
Its value is less than 9 pEC50.

B4: Compound A24 (peptide)
peptide: YSHGTFTSDYSKYLD[Aib]KRAQEFV[Aib]WLEDEPSSKGAPPPS-OH
modifications: N-terminus assumed
SMILES: CC(C)C[C@H](NC(=O)[C@H](Cc1ccc(O)cc1)NC(=O)[C@H](CCCCN)NC(=O)[C@H](CO)NC(=O)[C@H](Cc1ccc(O)cc1)NC(=O)[C@H](CC(=O)O)NC(=O)[C@H](CO)NC(=O)[C@@H](NC(=O)[C@H](Cc1ccccc1)NC(=O)[C@@H](NC(=O)CNC(=O)[C@H](Cc1c[nH]cn1)NC(=O)[C@H](CO)NC(=O)[C@@H](N)Cc1ccc(O)cc1)[C@@H](C)O)[C@@H](C)O)C(=O)N[C@@H](CC(=O)O)C(=O)NC(C)(C)C(=O)N[C@@H](CCCCN)C(=O)N[C@@H](CCCNC(=N)N)C(=O)N[C@@H](C)C(=O)N[C@@H](CCC(N)=O)C(=O)N[C@@H](CCC(=O)O)C(=O)N[C@@H](Cc1ccccc1)C(=O)N[C@H](C(=O)NC(C)(C)C(=O)N[C@@H](Cc1c[nH]c2ccccc12)C(=O)N[C@@H](CC(C)C)C(=O)N[C@@H](CCC(=O)O)C(=O)N[C@@H](CC(=O)O)C(=O)N[C@@H](CCC(=O)O)C(=O)N1CCC[C@H]1C(=O)N[C@@H](CO)C(=O)N[C@@H](CO)C(=O)N[C@@H](CCCCN)C(=O)NCC(=O)N[C@@H](C)C(=O)N1CCC[C@H]1C(=O)N1CCC[C@H]1C(=O)N1CCC[C@H]1C(=O)N[C@@H](CO)C(=O)O)C(C)C
What does the source list for B4?
hGCGR pEC50 (cAMP) [1]: 12.2 pEC50; hGLP1 pEC50 (cAMP) [2]: < 9 pEC50

B5: Compound A23 (peptide)
peptide: YSHGTFTSDYSKYLD[Aib]KRAQEFV[Aib]WLEDEPSSKAPPPS-OH
modifications: N-terminus assumed
SMILES: CC(C)C[C@H](NC(=O)[C@H](Cc1ccc(O)cc1)NC(=O)[C@H](CCCCN)NC(=O)[C@H](CO)NC(=O)[C@H](Cc1ccc(O)cc1)NC(=O)[C@H](CC(=O)O)NC(=O)[C@H](CO)NC(=O)[C@@H](NC(=O)[C@H](Cc1ccccc1)NC(=O)[C@@H](NC(=O)CNC(=O)[C@H](Cc1c[nH]cn1)NC(=O)[C@H](CO)NC(=O)[C@@H](N)Cc1ccc(O)cc1)[C@@H](C)O)[C@@H](C)O)C(=O)N[C@@H](CC(=O)O)C(=O)NC(C)(C)C(=O)N[C@@H](CCCCN)C(=O)N[C@@H](CCCNC(=N)N)C(=O)N[C@@H](C)C(=O)N[C@@H](CCC(N)=O)C(=O)N[C@@H](CCC(=O)O)C(=O)N[C@@H](Cc1ccccc1)C(=O)N[C@H](C(=O)NC(C)(C)C(=O)N[C@@H](Cc1c[nH]c2ccccc12)C(=O)N[C@@H](CC(C)C)C(=O)N[C@@H](CCC(=O)O)C(=O)N[C@@H](CC(=O)O)C(=O)N[C@@H](CCC(=O)O)C(=O)N1CCC[C@H]1C(=O)N[C@@H](CO)C(=O)N[C@@H](CO)C(=O)N[C@@H](CCCCN)C(=O)N[C@@H](C)C(=O)N1CCC[C@H]1C(=O)N1CCC[C@H]1C(=O)N1CCC[C@H]1C(=O)N[C@@H](CO)C(=O)O)C(C)C
Which results are given for B5?
hGCGR pEC50 (cAMP) [1]: 11.2 pEC50; hGLP1 pEC50 (cAMP) [2]: < 9 pEC50

B6: Compound A19 (peptide)
peptide: YSHGTFTSDYSKWLD[Aib]SRAQEFV[Aib]WLEDEPSSGAPPPS-OH
modifications: N-terminus assumed
SMILES: CC(C)C[C@H](NC(=O)[C@H](Cc1c[nH]c2ccccc12)NC(=O)[C@H](CCCCN)NC(=O)[C@H](CO)NC(=O)[C@H](Cc1ccc(O)cc1)NC(=O)[C@H](CC(=O)O)NC(=O)[C@H](CO)NC(=O)[C@@H](NC(=O)[C@H](Cc1ccccc1)NC(=O)[C@@H](NC(=O)CNC(=O)[C@H](Cc1c[nH]cn1)NC(=O)[C@H](CO)NC(=O)[C@@H](N)Cc1ccc(O)cc1)[C@@H](C)O)[C@@H](C)O)C(=O)N[C@@H](CC(=O)O)C(=O)NC(C)(C)C(=O)N[C@@H](CO)C(=O)N[C@@H](CCCNC(=N)N)C(=O)N[C@@H](C)C(=O)N[C@@H](CCC(N)=O)C(=O)N[C@@H](CCC(=O)O)C(=O)N[C@@H](Cc1ccccc1)C(=O)N[C@H](C(=O)NC(C)(C)C(=O)N[C@@H](Cc1c[nH]c2ccccc12)C(=O)N[C@@H](CC(C)C)C(=O)N[C@@H](CCC(=O)O)C(=O)N[C@@H](CC(=O)O)C(=O)N[C@@H](CCC(=O)O)C(=O)N1CCC[C@H]1C(=O)N[C@@H](CO)C(=O)N[C@@H](CO)C(=O)NCC(=O)N[C@@H](C)C(=O)N1CCC[C@H]1C(=O)N1CCC[C@H]1C(=O)N1CCC[C@H]1C(=O)N[C@@H](CO)C(=O)O)C(C)C
What does the source list for B6?
hGCGR pEC50 (cAMP) [1]: 11 pEC50; hGLP1 pEC50 (cAMP) [2]: < 9 pEC50

B7: Compound A18 (peptide)
peptide: YSHGTFTSDYSKWLD[Aib]ARAQEFV[Aib]WLEDEPSSGAPPPS-OH
modifications: N-terminus assumed
SMILES: CC(C)C[C@H](NC(=O)[C@H](Cc1c[nH]c2ccccc12)NC(=O)[C@H](CCCCN)NC(=O)[C@H](CO)NC(=O)[C@H](Cc1ccc(O)cc1)NC(=O)[C@H](CC(=O)O)NC(=O)[C@H](CO)NC(=O)[C@@H](NC(=O)[C@H](Cc1ccccc1)NC(=O)[C@@H](NC(=O)CNC(=O)[C@H](Cc1c[nH]cn1)NC(=O)[C@H](CO)NC(=O)[C@@H](N)Cc1ccc(O)cc1)[C@@H](C)O)[C@@H](C)O)C(=O)N[C@@H](CC(=O)O)C(=O)NC(C)(C)C(=O)N[C@@H](C)C(=O)N[C@@H](CCCNC(=N)N)C(=O)N[C@@H](C)C(=O)N[C@@H](CCC(N)=O)C(=O)N[C@@H](CCC(=O)O)C(=O)N[C@@H](Cc1ccccc1)C(=O)N[C@H](C(=O)NC(C)(C)C(=O)N[C@@H](Cc1c[nH]c2ccccc12)C(=O)N[C@@H](CC(C)C)C(=O)N[C@@H](CCC(=O)O)C(=O)N[C@@H](CC(=O)O)C(=O)N[C@@H](CCC(=O)O)C(=O)N1CCC[C@H]1C(=O)N[C@@H](CO)C(=O)N[C@@H](CO)C(=O)NCC(=O)N[C@@H](C)C(=O)N1CCC[C@H]1C(=O)N1CCC[C@H]1C(=O)N1CCC[C@H]1C(=O)N[C@@H](CO)C(=O)O)C(C)C
What does the source list for B7?
hGCGR pEC50 (cAMP) [1]: 12.4 pEC50; hGLP1 pEC50 (cAMP) [2]: < 9 pEC50
